The results in this text go back to patent US20230203107A1, “PEPTIDE FOR TREATING SEPSIS DERIVED FROM RV3364C PROTEIN OF MYCOBACTERIUM TUBERCULOSIS” (priority 2021, published 2023).

The target in this test is T1, SNX9 BAR domain (Homo sapiens, UniProt Q9Y5X1).
T1 construct: different regions 1-595, 1-250, 250-361, and 392-595 of SNX9; expressed in transfected cells; host or cells: 293T (pEF-IRES-Puro expression vector)
The test is classed as cell-based.

T1 sequence (Q9Y5X1 392-595): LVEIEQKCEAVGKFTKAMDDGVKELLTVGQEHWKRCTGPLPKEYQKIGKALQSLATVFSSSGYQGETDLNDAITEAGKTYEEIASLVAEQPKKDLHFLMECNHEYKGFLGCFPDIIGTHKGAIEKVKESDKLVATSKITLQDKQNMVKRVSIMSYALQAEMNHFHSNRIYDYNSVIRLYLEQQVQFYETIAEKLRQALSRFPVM

Regarding “Rv3364c: Rv3364c protein of Mycobacterium tuberculosis, expressed in 293T cells from a Flag-tagged plasmid”, the “domain of SNX9 interacting with Rv3364c” value is “interacted with SNX9 through a Bin-Amphiphysin-Rvs (BAR) domain”.
